Drawing on paper PMC12706091, this text covers fold change of TIA1 pulled down with DIC1B, with Myc-ANXA7 against without for one molecule.

The target in the assay is recombinant Flag-DIC1B (rFlag-DIC1B). Description: pull-down; 2 μg Flag-DIC1B on anti-Flag magnetic beads, 2 μg each of Myc-ANXA7 and TIA1 added; NP40 lysis buffer with 0.5 M L-arginine, 4 °C; with or without 1 mM CaCl2; western blot. A general note: A western blot detects proteins with antibodies after separation by electrophoresis.

B1: recombinant TIA1 (rTIA1) (natural protein)
chain: MEDEMPKTLYVGNLSRDVTEALILQLFSQIGPCKNCKMIMDTAGNDPYCFVEFHEHRHAAAALAAMNGRKIMGKEVKVNWATTPSSQKKDTSSSTVVSTQRSQDHFHVFVGDLSPEITTEDIKAAFAPFGRISDARVVKDMATGKSKGYGFVSFFNKWDAENAIQQMGGQWLGGRQIRTNWATRKPPAPKSTYESNTKQLSYDEVVNQSSPSNCTVYCGGVTSGLTEQLMRQTFSPFGQIMEIRVFPDKGYSFVRFNSHESAAHAIVSVNGTTIEGHVVKCYWGKETLDMINPVQQQNQIGYPQPYGQWGQWYGNAQQIGQYMPNGWQVPAYGMYGQAWNQQGFNQTQSSAPWMGPNYGVQPPQGQNGSMLPNQPSGYRVAGYETQ
On to B1, for which the fold change of TIA1 pulled down with DIC1B, with Myc-ANXA7 against without stood at 4 fold.
